The values below come from patent US20040049009A1, “Methods for improving the antagonistic/agonistic properties of peptidic antagonists/agonists of the corticotropin-releasing factor receptor (crfr)” (priority 2000, published 2004).

Ends that are not written are not given here.

Assay [1] deals with T1, rat CRF binding protein C-terminally fused with a His6 sequence (rat) (UniProt P24388).
T1 sequence: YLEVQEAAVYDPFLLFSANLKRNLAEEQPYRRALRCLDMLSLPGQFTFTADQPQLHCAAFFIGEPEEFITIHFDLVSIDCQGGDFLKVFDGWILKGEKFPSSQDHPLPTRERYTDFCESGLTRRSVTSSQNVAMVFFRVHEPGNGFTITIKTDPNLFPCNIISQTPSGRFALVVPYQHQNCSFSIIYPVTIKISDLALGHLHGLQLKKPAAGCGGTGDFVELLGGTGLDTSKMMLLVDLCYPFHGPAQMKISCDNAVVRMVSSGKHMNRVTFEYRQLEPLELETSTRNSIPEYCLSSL
Kind of assay: SPA competition with 0.1 nM [125I-Tyr0]h/rCRF, His-tagged rCRFBP; 95% CI (45-70).

Assay [2] has as its target mouse CRF receptor, type 2β (mouse) (UniProt Q60748). Kind of assay: SPA competition with 0.05 nM [125I-Tyr0]Svg, HEK-293 membranes; 95% CI (0.72-1.1).
Assay [3] concerns the target T1, rat CRF binding protein C-terminally fused with a His6 sequence (rat). Kind of assay: SPA competition with 0.1 nM [125I-Tyr0]h/rCRF, His-tagged rCRFBP; 95% CI (0.66-1.0).
The target in assay [4] is mouse CRF receptor, type 2β (mouse) (UniProt Q60748). Kind of assay: SPA competition with 0.05 nM [125I-Tyr0]Svg, HEK-293 membranes; 95% CI (0.56-1.1).

As usually defined, the IC50 is the concentration that inhibits the measured activity by half. Low readings indicate inhibition by little substance, high ones a need for much substance. For the molecule QGPPISIDLSLELLRKMIEIEKQEKEKQQAANNRLLLDTI (ligand, ends and bridges not checked) [sauvagine], the IC50 in assay [1] worked out at 57 nM; in assay [2] it was 0.92 nM.
For the molecule QGPPISIDLSLELLRKMIEIARAEKEKQQAANNRLLLDTI (ends and bridges not checked) [[Ala^21,23Arg^22]Svg], the IC50 turned out to be 0.84 nM in assay [3] and 0.82 nM in assay [4].
